Literature values, collected in publication PMC3749136.

Target: EGF-R pY1092 peptide pY1092 peptide (Homo sapiens) (UniProt P00533)
Conditions: cited from earlier work

SOCS4 SH2, sequence (Q8WXH5 283-384): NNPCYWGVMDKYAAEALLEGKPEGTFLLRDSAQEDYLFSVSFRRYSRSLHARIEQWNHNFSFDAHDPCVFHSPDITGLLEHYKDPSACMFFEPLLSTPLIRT

Question: With SOCS4 SH2 (from UniProt Q8WXH5) as the substance, how does the Kd read?
Answer: Its Kd is 500 nM.
